Here are results for two variants from IntAct's records for PubMed 29995851.

To fix the notation:
B1: Protein patched homolog 1 (Homo sapiens), Q13635-1 (parent)
chain: MASAGNAAEPQDRGGGGSGCIGAPGRPAGGGRRRRTGGLRRAAAPDRDYLHRPSYCDAAFALEQISKGKATGRKAPLWLRAKFQRLLFKLGCYIQKNCGKFLVVGLLIFGAFAVGLKAANLETNVEELWVEVGGRVSRELNYTRQKIGEEAMFNPQLMIQTPKEEGANVLTTEALLQHLDSALQASRVHVYMYNRQWKLEHLCYKSGELITETGYMDQIIEYLYPCLIITPLDCFWEGAKLQSGTAYLLGKPPLRWTNFDPLEFLEELKKINYQVDSWEEMLNKAEVGHGYMDRPCLNPADPDCPATAPNKNSTKPLDMALVLNGGCHGLSRKYMHWQEELIVGGTVKNSTGKLVSAHALQTMFQLMTPKQMYEHFKGYEYVSHINWNEDKAAAILEAWQRTYVEVVHQSVAQNSTQKVLSFTTTTLDDILKSFSDVSVIRVASGYLLMLAYACLTMLRWDCSKSQGAVGLAGVLLVALSVAAGLGLCSLIGISFNAATTQVLPFLALGVGVDDVFLLAHAFSETGQNKRIPFEDRTGECLKRTGASVALTSISNVTAFFMAALIPIPALRAFSLQAAVVVVFNFAMVLLIFPAILSMDLYRREDRRLDIFCCFTSPCVSRVIQVEPQAYTDTHDNTRYSPPPPYSSHSFAHETQITMQSTVQLRTEYDPHTHVYYTTAEPRSEISVQPVTVTQDTLSCQSPESTSSTRDLLSQFSDSSLHCLEPPCTKWTLSSFAEKHYAPFLLKPKAKVVVIFLFLGLLGVSLYGTTRVRDGLDLTDIVPRETREYDFIAAQFKYFSFYNMYIVTQKADYPNIQHLLYDLHRSFSNVKYVMLEENKQLPKMWLHYFRDWLQGLQDAFDSDWETGKIMPNNYKNGSDDGVLAYKLLVQTGSRDKPIDISQLTKQRLVDADGIINPSAFYIYLTAWVSNDPVAYAASQANIRPHRPEWVHDKADYMPETRLRIPAAEPIEYAQFPFYLNGLRDTSDFVEAIEKVRTICSNYTSLGLSSYPNGYPFLFWEQYIGLRHWLLLFISVVLACTFLVCAVFLLNPWTAGIIVMVLALMTVELFGMMGLIGIKLSAVPVVILIASVGIGVEFTVHVALAFLTAIGDKNRRAVLALEHMFAPVLDGAVSTLLGVLMLAGSEFDFIVRYFFAVLAILTILGVLNGLVLLPVLLSFFGPYPEVSPANGLNRLPTPSPEPPPSVVRFAMPPGHTHSGSDSSDSEYSSQTTVSGLSEELRHYEAQQGAGGPAHQVIVEATENPVFAHSTVVHPESRHHPPSNPRQQPHLDSGSLPPGRQGQQPRRDPPREGLWPPPYRPRRDAFEISTEGHSGPSNRARWGPRGARSHNPRNPASTAMGSSVPGYCQPITTVTASASVTVAVHPPPVPGPGRNPRGGLCPGYPETDHGLFEDPHVPFHVRCERRDSKVEVIELQDVECEERPRGSSSN

In the assay the parent is B1. The conditions noted are these: with shh_human SHH.
Regarding E221A;Y222A;L223A;Y224A, the “effect of a mutation on the interaction” value was “disrupting interaction”. The result for L254A;W256A reads “decreasing interaction strength”.
